From PMC4909301, “Fibulin-5 Regulates Angiopoietin-1/Tie-2 Receptor Signaling in Endothelial Cells” (PLoS ONE, 2016)

Target: T1, recombinant human Tie-2/Fc chimera (human, UniProt Q02763 23-748)
T1 construct: TIE-2 receptor tyrosine kinase, human, part fused to Fc in R&D Systems Cat. #313-TI-100; source: bought: R&D Systems
Test: ELISA; solid-phase binding assay; TIE-2/Fc (4.0 ug/ml) or Fibulin-5 (20 ug/ml) coated on 96-well plates; 1:2 serial dilutions of soluble Ang-1 in 2% non-fat milk in TBS, 1 hr, room temperature; detected with Ang-1 antibody
Conditions: both partners purified

T1 sequence (Q02763 23-748, change not shown): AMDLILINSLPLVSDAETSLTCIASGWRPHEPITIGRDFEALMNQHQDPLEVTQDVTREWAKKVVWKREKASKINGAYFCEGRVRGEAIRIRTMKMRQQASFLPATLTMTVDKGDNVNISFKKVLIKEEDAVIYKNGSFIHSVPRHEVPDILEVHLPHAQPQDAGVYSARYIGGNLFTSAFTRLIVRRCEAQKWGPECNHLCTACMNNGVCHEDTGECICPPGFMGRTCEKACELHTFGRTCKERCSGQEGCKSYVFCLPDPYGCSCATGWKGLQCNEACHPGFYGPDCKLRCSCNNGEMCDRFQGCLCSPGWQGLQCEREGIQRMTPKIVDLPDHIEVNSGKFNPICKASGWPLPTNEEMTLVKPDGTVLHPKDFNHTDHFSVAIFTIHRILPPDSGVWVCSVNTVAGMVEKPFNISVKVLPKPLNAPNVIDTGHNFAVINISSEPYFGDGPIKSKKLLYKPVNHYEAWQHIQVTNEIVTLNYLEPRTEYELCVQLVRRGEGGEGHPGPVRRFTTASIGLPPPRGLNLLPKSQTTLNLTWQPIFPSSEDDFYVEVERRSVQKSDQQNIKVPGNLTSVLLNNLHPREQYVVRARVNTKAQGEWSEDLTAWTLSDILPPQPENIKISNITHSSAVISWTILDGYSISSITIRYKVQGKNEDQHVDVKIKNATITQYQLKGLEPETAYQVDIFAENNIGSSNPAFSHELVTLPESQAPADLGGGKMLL

B1: recombinant human Ang-1 (angiopoietin-1) (ligand, UniProt Q15389 16-498, looked up)
chain: HIGCSNQRRSPENSGRRYNRIQHGQCAYTFILPEHDGNCRESTTDQYNTNALQRDAPHVEPDFSSQKLQHLEHVMENYTQWLQKLENYIVENMKSEMAQIQQNAVQNHTATMLEIGTSLLSQTAEQTRKLTDVETQVLNQTSRLEIQLLENSLSTYKLEKQLLQQTNEILKIHEKNSLLEHKILEMEGKHKEELDTLKEEKENLQGLVTRQTYIIQELEKQLNRATTNNSVLQKQQLELMDTVHNLVNLCTKEGVLLKGGKREEEKPFRDCADVYQAGFNKSGIYTIYINNMPEPKKVFCNMDVNGGGWTVIQHREDGSLDFQRGWKEYKMGFGNPSGEYWLGNEFIFAITSQRQYMLRIELMDWEGNRAYSQYDRFHIGNEKQNYRLYLKGHTGTAGKQSSLILHGADFSTKDADNDNCMCKCALMLTGGWWFDACGPSNLNGMFYTAGQNHGKLNGIKWHYFKGPSYSLRSTTMMIRPLDF
notes: angiopoietin-1, human, recombinant, R&D Systems Cat. #923-AN/CF; The introduction calls angiopoietins oligomeric glycoproteins; source: bought: R&D Systems
Q: Does B1 bind?
A: Result: binds
